# Experimental data from the supplement of paper PMC7877785.
# ± gives the uncertainty stated by the source.
# Assay: self-splicing fitness, log relative to wild type (ln ratio); higher = more splicing; Tetrahymena group I intron in knt gene, E. coli kanamycin selection, DiMSum; sequences stand for … in CUCUCU…GGAGGGAAAAGUUAUCAGGCAUGCACCUGGUAGCUAGUCUUUAAACCAAUAGAUUGCAUCGGUUUAAAAGGCAAGACCGUCAAAUUGCGGGAAAGGGGUCAACAGCCGUUCAGUACCAAGUCUCAGGGGAAACUUUGAGAUGGCCUUGCAAAGGGUAUGGUAAUAAGCUGACGGACAUGGUCCUAACCACGCAGCCAAGUCCUAAGUCAACAGAUCUUCUGUUGAUAUGGAUGCAGUUCACAGACUAAAUGUCGGUCGGGGAAGAUGUAUUCUUCUCAUAAGAUAUAGUCGGACCUCUCCUUAAUGGGAGCUAGCGGAUGAAGUGAUGCAACACUGGAGCCGCUGGGAACUAAUUUGUAUGCGAAAGUAUAUUGAUUAGUUUUGGAGUACUCGUGGUCG
# In short: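 A randomised library covering all eight P1ex-region intron nucleotides was built with the intron in the knt kanamycin-resistance gene on pET-22b(+) and held in E. coli BL21(DE3). Cells were grown overnight at 37°C or 30°C on LB agar, with or without 25 μg/mL kanamycin, plus 100 μg/mL carbenicillin, 50 μM IPTG and 0.2% rhamnose, and pooled colonies were amplicon-sequenced on an Illumina HiSeq 2500. DiMSum fitness is the error-weighted combination of wild-type-normalised replicate fold changes, kanamycin versus none.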
Sequence,self-splicing fitness (ln) (30 °C),self-splicing fitness (ln) (37 °C)
CUGGAGCAAUAUUACGGACU,-3.12 ± 0.25,-2.07 ± 0.46
UAGGAGCAAUAUUACGAUGC,-1.78 ± 0.23,-1.01 ± 0.17
GGGCAGCAAUAUUACGGGUA,–,-2.55 ± 0.35
AUCUAGCAAUAUUACGCCGG,–,-1.25 ± 0.34
GUAUAGCAAUAUUACGAGAA,–,-2.32 ± 0.49
GACUAGCAAUAUUACGCACU,-0.55 ± 0.11,0.415 ± 0.16
UUUGAGCAAUAUUACGUAUC,-4 ± 0.29,-2.45 ± 0.23
CCUAAGCAAUAUUACGGAGC,-2.66 ± 0.35,–
CAAUAGCAAUAUUACGUGUG,-1.72 ± 0.053,-0.748 ± 0.063
CUGCAGCAAUAUUACGUAGC,-2.66 ± 0.15,-1.95 ± 0.18
AUCAAGCAAUAUUACGCAUU,-2.32 ± 0.12,-1.69 ± 0.14
ACGAAGCAAUAUUACGAAUA,-2.01 ± 0.26,0.937 ± 0.18
GACGAGCAAUAUUACGAUAC,-4.85 ± 0.28,-2.16 ± 0.2
GCCCAGCAAUAUUACGCUCC,-0.416 ± 0.11,-0.675 ± 0.12
AAUCAGCAAUAUUACGUGGC,-3.57 ± 0.17,-1.83 ± 0.12
CACUAGCAAUAUUACGGCCC,–,-1.71 ± 0.46
AACGAGCAAUAUUACGGCAG,–,-3.6 ± 0.36
AUACAGCAAUAUUACGUAGC,-3.19 ± 0.21,-2.45 ± 0.23
ACUCAGCAAUAUUACGGCAG,-1.52 ± 0.089,-0.501 ± 0.093
GGCUAGCAAUAUUACGGCUC,-3.26 ± 0.3,–

Sequence,self-splicing fitness (ln) (30 °C),self-splicing fitness (ln) (37 °C)
GAGUAGCAAUAUUACGGAGU,-3.7 ± 0.27,-3.05 ± 0.19
CUGAAGCAAUAUUACGAACU,-3.64 ± 0.19,-2.37 ± 0.23
ACAAAGCAAUAUUACGGACC,-1.02 ± 0.1,-1.5 ± 0.15
AUUCAGCAAUAUUACGGUAU,-0.934 ± 0.065,-0.155 ± 0.073
AAUGAGCAAUAUUACGACGU,-1.13 ± 0.11,-0.443 ± 0.12
CUAGAGCAAUAUUACGACGU,-3.28 ± 0.3,-0.837 ± 0.26
GUUGAGCAAUAUUACGCACU,-1.26 ± 0.15,-0.723 ± 0.2
CUCAAGCAAUAUUACGAAAU,-4.62 ± 0.46,-2.14 ± 0.17
GCACAGCAAUAUUACGAUUC,-0.739 ± 0.11,1.44 ± 0.15
AAGCAGCAAUAUUACGAAGC,-3.33 ± 0.29,-1.93 ± 0.27
UCAGAGCAAUAUUACGCGAA,-2.61 ± 0.21,-3.1 ± 0.29
AGAUAGCAAUAUUACGUAGA,-3.03 ± 0.15,-1.77 ± 0.16
GCGAAGCAAUAUUACGCGCU,-1.85 ± 0.24,-1.48 ± 0.4
GCACAGCAAUAUUACGCGCC,-2.56 ± 0.38,–
GGUAAGCAAUAUUACGUGUA,-1.73 ± 0.078,-0.95 ± 0.086
CAGAAGCAAUAUUACGUGAA,-3.07 ± 0.13,-1.16 ± 0.12
CGCAAGCAAUAUUACGUACU,-1.64 ± 0.075,-0.119 ± 0.096
UGGAAGCAAUAUUACGUACG,-0.898 ± 0.11,0.202 ± 0.13
UACAAGCAAUAUUACGCCCA,0.292 ± 0.11,0.261 ± 0.13
UAUCAGCAAUAUUACGCACA,-0.305 ± 0.087,0.32 ± 0.14
